For the data set the following is noted: Rattus norvegicus, pH 7.2, 20 °C, CD, Potassium phosphate 20 mM, reversible: yes, whole UniProt chain shown.

Where “and” joins values, the source holds several entries; their conditions need not be identical. Equal entries are not always repeated.

B1: Fatty acid-binding protein, brain wild type, P55051 (protein)
chain: MVDAFCATWKLTDSQNFDEYMKALGVGFATRQVGNVTKPTVIISQEGGKVVIRTQCTFKNTEISFQLGEEFEETSIDDRNCKSVIRLDGDKLIHVQKWDGKETNCVREIKDGKMVVTLTFGDVVAVRCYEKA
Regarding B1, the denaturant m value (DimethylUrea, NaCl 1 M) was 1.81 kcal/mol/M; the denaturant m value (GdnHCl) was found to be 4.21 kcal/mol/M; the denaturant m value (GdnSCN) was 14 kcal/mol/M; the denaturant m value (Urea) was 1.82 kcal/mol/M and 2.17 kcal/mol/M. In addition, the “denaturant midpoint (higher = more stable)” value reads like this: (DimethylUrea, NaCl 1 M) 5.36 M; (GdnHCl) 1.33 M; (GdnSCN) 0.73 M; (Urea) 5.43 M and 5.79 M. For the same protein, the unfolding free energy runs as follows: (DimethylUrea, NaCl 1 M) 9.71 kcal/mol; (GdnHCl) 5.58 kcal/mol; (GdnSCN) 10.2 kcal/mol; (Urea) 9.91 kcal/mol and 12.6 kcal/mol.

The values above are taken from FireProtDB (doi:10.1021/bi00493a013).
